Results reported in article PMC3149649, “Evidence for a Two-Metal-Ion Mechanism in the Cytidyltransferase KdsB, an Enzyme Involved in Lipopolysaccharide Biosynthesis” (PLoS ONE, 2011).

Target: the molecule itself
Assay: SEC; analytical gel filtration chromatography of purified AA-LCKS; conditions not given

B1: LPS-specific CMP-Kdo synthetase (KdsB) from Aquifex aeolicus (enzyme)
chain: MRRAVIIPARLGSTRLKEKPLKNLLGKPLIRWVVEGLVKTGERVILATDSERVKEVVEDLCEVFLTPSDLPSGSDRVLYVVRDLDVDLIINYQGDEPFVYEEDIKLIFRELEKGERVVTLARKDKEAYERPEDVKVVLDREGYALYFSRSPIPYFRKNDTFYPLKHVGIYGFRKETLMEFGAMPPSKLEQIEGLEQLRLLENGIKIKVLITENYYHGVDTEEDLKIVEEKLKNL
notes: CMP-Kdo synthetase KdsB (EC 2.7.7.38) of Aquifex aeolicus; the structure describes residues 2-234 (N-terminal domain 2-91 and 220-234, C-terminal domain 100-210); monomer 27 kDa by SDS-PAGE; No tag is mentioned; In the crystal the protein carries CTP and two Mg2+ ions; also called AA-LCKS; CKS
Q: With B1 as the protein, how does the “stoichiometry N” value read?
A: 2
